Test results from the supplement of paper PMC10724198.
± gives the standard deviation of the averaged measurements.

Tested on: Saccharomyces cerevisiae
Test: protein stability index of tFT-peptide fusion (C-terminal peptide) (PSI (0-1 scale)); higher = more stable (slower turnover)
Conditions: genetic background: wild type; temperature: 30 C
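Note: PSI is a weighted mean of sequencing reads over stability bins, variants kept only with over 10 reads, mCherry proximal and sfGFP distal, peptide attached via GGGS linker.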

In order of falling protein stability index:
1. SSGRWLFLPPCP  0.899 ± 0.13
2. SVVSWRGRNRSV  0.864 ± 0.065
3. TGREWCFERGCW  0.842 ± 0.14
4. TKRQTIEIIKKK  0.809 ± 0.11
5. SVWCRWGWSDWG  0.795 ± 0.051
6. SRKSDTMPSYPL  0.791 ± 0.26
7. SSFCWAGWGGVC  0.778 ± 0.059
8. TDWGLTPRGRVT  0.777 ± 0.062
9. TPATRCLASDSR  0.766 ± 0.11
10. STGDWKLKFSKF  0.765 ± 0.066
11. TPLLAALRPTTS  0.764 ± 0.07
12. SRPSPPPRRPLG  0.759 ± 0.067
13. TISEGMSGRRRR  0.759 ± 0.013
14. SSPFCPLFQNPL  0.757 ± 0.056
15. SRYGKVIRKKHE  0.756 ± 0.021
16. SVMWEARTEDGS  0.756 ± 0.043
17. TLDKGRFSPAHL  0.754 ± 0.049
18. TPMDVEVPIAPI  0.753 ± 0.063
19. SRWWSRPRYRDG  0.752 ± 0.017
20. TLPEVELTRQPI  0.747 ± 0.014
21. SSPPPPPPPPSP  0.746 ± 0.053
22. SSRPPPVLTPAR  0.745 ± 0.044
23. TINVWFARTNPD  0.7403 ± 0.0048
24. SSPSPAPPPPRP  0.738 ± 0.069
25. TFFSAPLLPSIP  0.73783 ± 0.00011
26. STVSRHPSSPLP  0.737 ± 0.039
27. TIETKVNSKDDS  0.735 ± 0.031
28. TLATHCDVHFTR  0.734 ± 0.077
29. THTEWVQFIRWY  0.733 ± 0.073
30. SRIGNADAAQGM  0.732 ± 0.042
31. SVEAGHVAERES  0.732 ± 0.061
32. TAKQDSGVSTPV  0.732 ± 0.12
33. SRGNYKLIWSDT  0.731 ± 0.093
34. SWMDRGGAYSGI  0.731 ± 0.11
35. TIRKKKNRRNKE  0.731 ± 0.016
36. TIWLTFGRTPQS  0.731 ± 0.042
37. SPWFPLPSFPLA  0.73 ± 0.029
38. SSVVCGPGVLGV  0.729 ± 0.077
39. SPTPPPPSPLAP  0.726 ± 0.059
40. SPTSLPLSMPTR  0.724 ± 0.1
41. TFLPAPSPTSPP  0.724 ± 0.032
42. STPLPPPTPLPA  0.723 ± 0.029
43. TIIPRHTFLPAP  0.723 ± 0.036
44. TPAPFSSHLVRR  0.723 ± 0.083
45. TNTQRYRKTRST  0.721 ± 0.054
46. TATYCFNALRRS  0.72 ± 0.052
47. SSLLSLPLRCSF  0.717 ± 0.039
48. SRPPPYAPPSPP  0.716 ± 0.01
49. TLGSSTPFPCFP  0.716 ± 0.059
50. STKVEIKKRDSR  0.715 ± 0.18
51. SVALSSPSRYCS  0.7137 ± 0.00077
52. TGRAPGSDVLAS  0.7139 ± 0.0029
53. SRSAQAGFKVFN  0.712 ± 0.2
54. SQPNRESQNTFN  0.711 ± 0.052
55. SVSSSVGRGLRV  0.711 ± 0.014
56. TASKHINYKCLA  0.711 ± 0.16
57. SSLPSFPTKCPF  0.71 ± 0.051
58. SVSLVQRSVCLD  0.71 ± 0.021
59. TKRKEKHKIIGK  0.705 ± 0.046
60. SSSPLPPPRLPP  0.7039 ± 0.0016
61. SVWGIVWRGNIV  0.704 ± 0.024
62. TLRILTRRGLVP  0.703 ± 0.12
63. STAPRYNGRKYS  0.702 ± 0.069
64. TIKNKKRKPKKK  0.702 ± 0.044
65. SRSSASTKRNRW  0.701 ± 0.096
66. SSSFLVLSSHFI  0.701 ± 0.028
67. SVSMEGCVSVRG  0.7009 ± 0.0036
68. SRHWCHDTGTLT  0.7 ± 0.012
69. SRLVCSTLHWRD  0.699 ± 0.021
70. SRRAPPPLYLPL  0.699 ± 0.067
71. TLFSNILRSPHS  0.696 ± 0.035
72. SPTPINALRPPT  0.695 ± 0.032
73. SPTPLLPLASSP  0.695 ± 0.052
74. SQPLPNRLKTRG  0.695 ± 0.032
75. SRSRPSRTLPLD  0.695 ± 0.022
76. SSPLRLAPTEPS  0.6927 ± 0.0039
77. SSSPPPPSLAPP  0.693 ± 0.0025
78. SPVGRRTLPSGF  0.692 ± 0.023
79. SQLRSSTSARYV  0.692 ± 0.14
80. SRVVSPLFNLCL  0.692 ± 0.018
81. STAEFLDFKMTT  0.691 ± 0.05
82. TGSRGPHRKPPD  0.691 ± 0.0077
83. SSPLPHPSFSPS  0.689 ± 0.017
84. SSPLRVLGPESG  0.689 ± 0.062
85. SSRSQTVRTFAL  0.689 ± 0.068
86. TESGKEKLDVIS  0.689 ± 0.007
87. SSPPTHAPPLPP  0.688 ± 0.017
88. TCVRHKVQKSRE  0.688 ± 0.058
89. THSPSPTTAPIP  0.688 ± 0.011
90. SVYCVLSRGNRL  0.687 ± 0.1
91. TGREGARVGIGR  0.687 ± 0.01
92. SSLIGHTLRPLV  0.686 ± 0.022
93. SVAGDEGDRLFR  0.686 ± 0.022
94. TFARMYRKGSED  0.686 ± 0.0077
95. TGKRADGGAEGG  0.686 ± 0.0086
96. TIQPSVTNPTLN  0.686 ± 0.04
97. TPNKKTGNQYPG  0.685 ± 0.038
98. SSQRPRCTFVLL  0.684 ± 0.031
99. TLHEDVMFYSRM  0.6843 ± 0.0067
100. SVNWVWNSVFDR  0.6826 ± 0.0024
101. TLGLLPDVCVEL  0.683 ± 0.021
102. SRWHVCGWYKRR  0.682 ± 0.016
103. TAMNNGNSIHKL  0.682 ± 0.041
104. STPSLPPPPPSS  0.6806 ± 0.006
105. TKCGESRENARI  0.681 ± 0.022
106. TPNYPLHPTKKI  0.681 ± 0.0084
107. SQLEPNNVQVTT  0.68 ± 0.0069
108. SRFDAGYRGTIT  0.68 ± 0.034
109. SVGGGGGAVGGG  0.68 ± 0.007
110. TAVPPLFARTWQ  0.6786 ± 0.0049
111. STSDAFLTFPLQ  0.678 ± 0.051
112. TGDNNRGKRDYD  0.678 ± 0.024
113. STNLITPPITNI  0.677 ± 0.011
114. TFPHSWHISSVP  0.677 ± 0.024
115. SQTEAGSICTLP  0.676 ± 0.05
116. SWPSLDLVSRMQ  0.676 ± 0.038
117. SQGSCCTALDVA  0.675 ± 0.046
118. SVGHPAAVHHAR  0.675 ± 0.068
119. TLDTICNTTKQR  0.675 ± 0.047
120. TLSSVSEKVVHL  0.675 ± 0.019
121. SRSSRINLMRRW  0.674 ± 0.021
122. TLLSPRRHPFAR  0.674 ± 0.022
123. SSDLTKKCNRLR  0.673 ± 0.023
124. SPSSTSPAPFPL  0.672 ± 0.14
125. TLKPTHAPSPPP  0.672 ± 0.021
126. TKKKNTKKNNNT  0.67 ± 0.095
127. TLSHPAHLKPMR  0.669 ± 0.051
128. SVPPPLSPPPPP  0.668 ± 0.018
129. TPNLHPPSAATP  0.668 ± 0.038
130. SRVWACCGVIGV  0.667 ± 0.067
131. SWEIGHLLPGTD  0.6671 ± 0.0048
132. TNYQKANIRINN  0.667 ± 0.035
133. SSVCPWACPPPP  0.666 ± 0.1
134. STLRGTTESERK  0.665 ± 0.057
135. TGRNIGRVKIYL  0.665 ± 0.049
136. SSLGLFISTASV  0.664 ± 0.042
137. SRPLVPSPPSPV  0.663 ± 0.02
138. SSTLPVYLSTTL  0.662 ± 0.023
139. SVGGGRWRYGGR  0.662 ± 0.04
140. SRSFVPRNSPRI  0.6609 ± 0.0051
141. SVGGWIARTAIV  0.661 ± 0.011
142. TPLPPEHLPRSR  0.661 ± 0.031
143. TPGYWVPPPTIP  0.66 ± 0.027
144. TILAGSSRGTLR  0.659 ± 0.061
145. SWAGGRWRRVPV  0.658 ± 0.04
146. SVAAGCGHGGGG  0.657 ± 0.011
147. TPASSLFRCASR  0.656 ± 0.028
148. SRDMGYFFPKLK  0.655 ± 0.073
149. SPTLNRSLPVPS  0.654 ± 0.045
150. TLALQFPFKLLF  0.653 ± 0.025
151. SSPARPTRTSPA  0.652 ± 0.061
152. TLPPPSLPPSSS  0.652 ± 0.071
153. SSNVVLYHSCSQ  0.65 ± 0.018
154. SVSPLSSSTLTA  0.65 ± 0.019
155. SPTRSPPRPLPP  0.649 ± 0.031
156. SVLVTASSFLYF  0.649 ± 0.027
157. SRPRPPVTPPSE  0.648 ± 0.054
158. STGLITYNYSVC  0.648 ± 0.024
159. TIVQNLEIVQAR  0.648 ± 0.13
160. SSPDLGPVCVPC  0.647 ± 0.016
161. SVNHVDIANSIL  0.647 ± 0.011
162. SRPISCSLPCCV  0.646 ± 0.054
163. SPTPPPPAPPPP  0.645 ± 0.044
164. SRNRYSSPPVFI  0.644 ± 0.039
165. TLPPPPLSTPTL  0.643 ± 0.1
166. STGACCGTVRLL  0.642 ± 0.0085
167. TPDVLGPLFPGD  0.642 ± 0.099
168. TEHLLTRGRRNT  0.64 ± 0.032
169. STLPPSRLSSPL  0.638 ± 0.017
170. TKILRGQKRRAA  0.637 ± 0.1
171. SVLAVSFLSLLV  0.636 ± 0.04
172. STLVHSDESQLA  0.633 ± 0.092
173. SRPRLPPSPCLF  0.631 ± 0.032
174. SSTSPPPVTPPD  0.625 ± 0.0096
175. TEYHIVTLPRRC  0.625 ± 0.076
176. SSQLKMESLFII  0.624 ± 0.064
177. STPPCRPFMADL  0.619 ± 0.0035
178. TLLVLGLSWGLP  0.618 ± 0.044
179. STGVGGPCGRTS  0.617 ± 0.055
180. TFLRGSILLVSP  0.617 ± 0.059
181. SVVVGTVFCRSW  0.615 ± 0.015
182. TLGALEVSVYET  0.614 ± 0.0097
183. STFASLRPLFFS  0.6128 ± 0.0012
184. SRGMERIWEFGR  0.612 ± 0.036
185. TPFLLHPPSPDL  0.607 ± 0.051
186. TNGHNGQENGEE  0.602 ± 0.06
187. SVLAIASVIGCL  0.598 ± 0.032
188. TFPPLLFVCSLL  0.594 ± 0.0078
189. THFPFPVLFSLP  0.592 ± 0.03
190. TLSQILVSSSLS  0.5896 ± 0.0019
191. TKHRFPKYRYLG  0.5868 ± 0.0011
192. TLFPPLCVFSFC  0.587 ± 0.03
193. SVWCRRRRVTNS  0.5825 ± 0.0054
194. TIVSFYVRFLSG  0.583 ± 0.15
195. SSLPSTGPRPLH  0.582 ± 0.038
196. SVRWFLIGCGGA  0.579 ± 0.048
197. SRVLLPPQTLLL  0.573 ± 0.035
198. SRLQIRIRINEV  0.572 ± 0.032
199. SVWLISPRPLSV  0.5639 ± 0.0032
200. SQGDVLLFMFLW  0.548 ± 0.033
201. SWFTHTQSVRCS  0.515 ± 0.014
202. SVGRPVACLFVH  0.5115 ± 0.0019
